Key:
[1] = target: hIL-6R on hIL-6-responsive human cells (XG-1 myeloma line, HepG2 hepatoma line) (human) (UniProt P08887); test: cell-based or functional assay
[2] = target: recombinant hIL-6R protein, monomeric form (human) (UniProt P08887); test: SPR (BIAcore), captured antibody, monomeric hIL-6R
[3] = target: recombinant hIL-6R protein, monomeric form (human) (UniProt P08887); test: Kinexa solution-phase competition immunoassay, monomeric hIL-6R
[4] = target: Recombinant monkey monomeric IL-6R protein (Macaca fascicularis, extracellular domain) (Macaca fascicularis); test: SPR (BIAcore), captured antibody, monomeric IL-6R 1.25-40 nM injected
[5] = target: recombinant hIL-6R protein, monomeric form (human) (UniProt P08887); test: as above
hIL-6R-hFc (human) = hIL-6R-hFc (human) (UniProt P08887); test: blocking ELISA: 100 pM hIL-6R-hFc premixed with varied antibody, free hIL-6R-hFc captured on hIL-6-coated plate
[6] = target: T1, hIL-6R on hIL-6-responsive human cells (XG-1 myeloma line, HepG2 hepatoma line) (human, UniProt P08887 20-468); test: cell-based or functional assay
T1 sequence (looked up): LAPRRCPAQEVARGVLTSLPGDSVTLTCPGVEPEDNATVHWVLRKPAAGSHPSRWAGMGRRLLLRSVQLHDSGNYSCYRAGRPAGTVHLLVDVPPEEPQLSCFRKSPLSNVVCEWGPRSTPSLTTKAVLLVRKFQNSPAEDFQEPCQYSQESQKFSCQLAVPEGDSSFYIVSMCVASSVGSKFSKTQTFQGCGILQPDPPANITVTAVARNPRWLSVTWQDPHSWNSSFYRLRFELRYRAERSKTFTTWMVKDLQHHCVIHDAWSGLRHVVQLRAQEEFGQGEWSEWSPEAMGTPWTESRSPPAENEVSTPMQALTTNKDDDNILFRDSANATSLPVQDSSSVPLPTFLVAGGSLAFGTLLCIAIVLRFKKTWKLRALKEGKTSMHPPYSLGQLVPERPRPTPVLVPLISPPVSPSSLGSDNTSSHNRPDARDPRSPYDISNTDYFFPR

[7] = target: T1, hIL-6R on hIL-6-responsive human cells …; test: cell-based or functional assay; remark: listed apart in the source
[8] = target: T2, recombinant hIL-6R protein, monomeric form (human, UniProt P08887 20-358); test: Kinexa solution-phase competition immunoassay, monomeric hIL-6R
T2 construct: also called monomeric hIL-6R; Human IL6R
T2 sequence: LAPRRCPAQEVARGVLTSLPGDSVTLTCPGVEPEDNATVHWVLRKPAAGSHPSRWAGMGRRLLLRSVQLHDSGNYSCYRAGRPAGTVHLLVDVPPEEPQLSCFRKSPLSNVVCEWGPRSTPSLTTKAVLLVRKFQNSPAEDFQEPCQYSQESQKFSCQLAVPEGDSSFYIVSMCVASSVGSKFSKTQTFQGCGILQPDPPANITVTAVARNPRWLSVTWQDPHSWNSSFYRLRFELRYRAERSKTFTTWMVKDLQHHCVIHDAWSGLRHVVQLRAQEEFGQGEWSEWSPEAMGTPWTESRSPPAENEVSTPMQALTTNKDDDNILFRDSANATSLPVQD

[9] = target: T3, hIL-6R recombinant protein (plate-coated, Example 5) (human, UniProt P08887 20-358, limits assumed); test: SPR (BIAcore) competition on hIL-6R; competitor: control antibody
T3 construct: also called antigen
T3 sequence: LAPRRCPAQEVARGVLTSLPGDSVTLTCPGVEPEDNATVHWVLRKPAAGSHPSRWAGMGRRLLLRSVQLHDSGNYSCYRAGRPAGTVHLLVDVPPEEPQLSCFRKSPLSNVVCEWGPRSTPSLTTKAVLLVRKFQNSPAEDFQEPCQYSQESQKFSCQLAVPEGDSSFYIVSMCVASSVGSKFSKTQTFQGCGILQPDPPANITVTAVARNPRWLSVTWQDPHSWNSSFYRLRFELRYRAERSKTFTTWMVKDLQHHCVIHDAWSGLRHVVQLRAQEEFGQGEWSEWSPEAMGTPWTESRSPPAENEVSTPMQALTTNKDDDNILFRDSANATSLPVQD

[10] = target: T2, recombinant hIL-6R protein, monomeric …; test: SPR (BIAcore), captured mouse-IgG antibody, monomeric hIL-6R 1.56-12.5 nM
hIL-6R-hFc [11] = target: T4, hIL-6R-hFc (human, UniProt P08887 20-358); test: SPR (BIAcore), antibody captured on anti-mouse IgG surface, dimeric hIL-6R
T4 construct: also called dimeric hIL-6R; Dimer; not shown: human Fc (hFc)
T4 sequence: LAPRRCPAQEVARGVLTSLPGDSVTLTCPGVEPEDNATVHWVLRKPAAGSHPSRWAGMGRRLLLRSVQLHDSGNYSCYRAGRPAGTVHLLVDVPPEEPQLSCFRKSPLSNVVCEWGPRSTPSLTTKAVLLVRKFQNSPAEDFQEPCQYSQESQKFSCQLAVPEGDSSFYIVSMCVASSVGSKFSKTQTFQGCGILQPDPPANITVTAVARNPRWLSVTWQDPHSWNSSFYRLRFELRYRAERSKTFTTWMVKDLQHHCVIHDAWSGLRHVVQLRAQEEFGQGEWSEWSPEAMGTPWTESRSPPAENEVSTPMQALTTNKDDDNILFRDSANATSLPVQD

[12] = target: T2, recombinant hIL-6R protein, monomeric …; test: SPR (BIAcore), antibody captured on anti-mouse IgG surface, monomeric hIL-6R
[13] = target: T2, recombinant hIL-6R protein, monomeric …; test: SPR (BIAcore), antibody captured on goat anti-mouse Fc, monomeric IL-6R 1.25-40 nM injected
[14] = target: T5, Recombinant monkey monomeric IL-6R protein (Macaca fascicularis, extracellular domain) (Macaca fascicularis, UniProt P08887 21-330 (human entry)); test: as above
T5 construct: also called Monkey IL6R; monkey IL-6R
T5 chain: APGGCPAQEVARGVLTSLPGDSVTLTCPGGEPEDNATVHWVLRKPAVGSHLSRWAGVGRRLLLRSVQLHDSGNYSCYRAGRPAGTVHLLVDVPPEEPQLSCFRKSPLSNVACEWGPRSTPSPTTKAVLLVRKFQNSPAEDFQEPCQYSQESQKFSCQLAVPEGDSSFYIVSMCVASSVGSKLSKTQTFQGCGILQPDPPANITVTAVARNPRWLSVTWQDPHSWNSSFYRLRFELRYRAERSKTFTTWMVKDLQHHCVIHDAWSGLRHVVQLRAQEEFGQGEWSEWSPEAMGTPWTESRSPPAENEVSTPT

hIL-6R-hFc [15] = target: T4, hIL-6R-hFc; test: SPR (BIAcore): hIL-6R-hFc captured, antibody injected, then 50 nM hIL-6; percent reduction in hIL-6 binding
hIL-6R-hFc [16] = target: T4, hIL-6R-hFc; test: blocking ELISA: 100 pM hIL-6R-hFc premixed with varied antibody, free hIL-6R-hFc captured on hIL-6-coated plate
[17] = target: T3, hIL-6R recombinant protein …; test: competition ELISA on hIL-6R-coated plate presaturated with competitor control antibody; test antibody 50 ng/ml
[18] = target: T5, Recombinant monkey monomeric IL-6R …; test: SPR (BIAcore); reference: binding to human IL-6R; end of range tied to this antibody by Table 4 (0.569 against 0.377 nM)
hIL-6R-hFc [19] = target: T4, hIL-6R-hFc; test: competition ELISA: antibody premixed with serial dilutions of hIL-6R-hFc, free antibody detected on hIL-6R-hFc-coated plate
[20] = target: T2, recombinant hIL-6R protein, monomeric …; test: SPR (BIAcore), captured antibody, monomeric hIL-6R

humanized monoclonal antibody to human IL-6R (U.S. Patent No. 5,817,790 SEQ ID NO:69 and 71), sequence (VH): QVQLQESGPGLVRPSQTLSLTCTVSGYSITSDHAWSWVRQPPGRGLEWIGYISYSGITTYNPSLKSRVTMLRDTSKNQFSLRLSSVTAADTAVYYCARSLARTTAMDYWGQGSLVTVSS
humanized monoclonal antibody to human IL-6R (U.S. Patent No. 5,817,790 SEQ ID NO:69 and 71), sequence (VL): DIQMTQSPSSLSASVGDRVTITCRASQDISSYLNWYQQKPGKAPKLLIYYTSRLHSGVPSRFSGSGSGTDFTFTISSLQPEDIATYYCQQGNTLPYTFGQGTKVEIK

| Molecule | HepG2/Stat3 Luciferase activity IC50 [6] [nM] | XG-1 cell proliferation Inhibition IC50 [6] [nM] | HepG2/STAT3 luciferase assay IC50 [7] [nM] | Kd [8] [nM] | % reduction of binding by control antibody [9] [%] | Kd [10] [nM] | koff [10] [s⁻¹] | kon [10] [M⁻¹ s⁻¹] | Kd (hIL-6R-hFc [11]) [nM] | Kd [12] [nM] | Kd [13] [nM] | koff [13] [s⁻¹] | kon [13] [M⁻¹ s⁻¹] | Kd [14] [nM] | koff [14] [s⁻¹] | kon [14] [M⁻¹ s⁻¹] | hIL6/hIL6R Binding Inhibition (%) (hIL-6R-hFc [15]) | IC50 (hIL-6R-hFc [16]) [nM] | % reduction of binding by control antibody [17] [%] | IC50 (hIL-6R-hFc [19]) [nM] | also measured |
| --- | --- | --- | --- | --- | --- | --- | --- | --- | --- | --- | --- | --- | --- | --- | --- | --- | --- | --- | --- | --- | --- |
| humanized monoclonal antibody to human IL-6R (U.S. Patent No. 5,817,790 SEQ ID NO:69 and 71) |  |  |  |  |  |  |  |  |  |  |  |  |  |  |  |  |  |  |  |  | HepG2/Stat3 Luciferase activity IC50 [1]: 0.854 nM; XG-1 cell proliferation Inhibition IC50 [1]: 1.5 nM; Kd [2]: 1.79 nM; Kd [3]: 1.96 nM; Kd [4]: 1.17 nM; Kd [5]: 0.963 nM; IC50 (hIL-6R-hFc (human)): 2.2 nM |
| VQ8A9-6 (antibody, V domains shown, Human variable regions with mouse constant region (hybridoma-derived chimeric antibody); also called VQ8A9-6 mIgG1) VH: EVQLVESGGNLVQPGRSLRLSCAASGFIFDDYAMHWVRQAPGKGLEWVSGISWNSGSIGYADSVKGRFTISRDNAKNSLYLQMNSLRAEDTALYYCAKDGGSSWLPFVYYYGMDVWGQGTTVTVSS VL: EIVMTQSPATLSVSPGERATLSCRASQSISSNFAWYQQKPGQAPRLLIYGASTRATGIPARFSGSGSGTDFTLTISSLQSEDFAVYYCQQYSSWPPYTFGQGTKLEIK | 0.097 | 0.4 | 0.097 | 0.12 | 26 | 0.222 | 0.000221 | 995000 | 0.101 | 0.222 | 0.377 | 0.000276 | 732000 | 0.569 | 0.000416 | 731000 | 68 | 0.39 | 3 | 0.004 | fold difference of KD, monkey against human receptor [18]: 1.5 fold |
| VV3D8-4 (antibody, V domains shown, Human variable regions with mouse constant region) VH: EVQLVESGGGLVQPGRSLRLSCAASGFTFDDYALHWVRQAPGKGLEWVSGISWNSGRIGYADSVKGRFTISRDNAKNSLFLQMNSLRAEDTALYYCAKGRDAFDIWGQGTLVTVSS VL: DIQMTQSPSSVSASVGDRVTITCRASQGISSWLAWYQQKPGKAPKLLIYAASSLQSGVPSRFSGSGSGTDFTLTISSLQPEDFATYYCQQANSFPYTFGQGTKLEIK |  | > 100 |  | 1.91 | 97 |  |  |  | 0.172 | 2.41 |  |  |  |  |  |  | 93 | 0.61 | 84 | 0.013 |  |
| VV6C10-1 (antibody, V domains shown, Human variable regions with mouse constant region) VH: EVQLVESGGGLVQPGRSLRLSCAASGFTFDDYALHWVRQAPGKGLEWVSGVSWNGGRIGYADSVKGRFTISRDNAKNSLFLQMNSLRVEDTALYYCAKGRDAFDIWGQGTLVTVSS VL: EIVLTQSPATLSLSPGERATLSCRASQSVSSYLAWYQQKPGQAPRLLIYDASNRATGIPARFSGSGSGTDFTLTISSLEPEDFAFYYCQQRNNRPPFTFGPGTKVDVR |  | > 6.9 |  | 2.05 | 90 |  |  |  | 0.032 | 0.267 |  |  |  |  |  |  | 61 | 4.6 | 80 | 0.01 |  |
| 248982-13-2-A9 (antibody, V domains shown) VH: QVQLVQSGGGLVQPGRSLRLSCAASGFTFDDYAMHWVRQAPGKGLEWVSGISWNSGRVGYADSVKGRFTISRDNAKNSLYLQMNSLRAEDTALYYCTKGRDAFDIWGQGTMVTVSS VL: DIVMTQSPSSVSASVGDRVTITCRASQGISSWLAWYQQKPGKAPKLLIYAASSLQSGVPSRFSGSGSGTDFTLTISSLQPEDFATYYCQQANSFPYTFGQGTKLEIK |  |  |  |  |  |  |  |  |  |  |  |  |  |  |  |  |  |  |  | 0.054 | Kd [20]: 2.87 nM |
| VV6A9-5 (antibody, V domains shown, Human variable regions with mouse constant region; also called VV6A9-5 mIgG2a) VH: EVQLVESGGGLVQPGRSLRLSCAASGFTFDDYALHWVRQAPGKGLEWVSGVSWNGGRIGYADSVKGRFTISRDNAKNSLFLQMNSLRVEDTALYYCAKGRDAFDIWGQGTLVTVSS VL: DIQMTQSPSSVSASVGDRVTITCRASQGISSWLAWYQQKPGKAPKLLIYAASSLQSGVPSRFSGSGSGTDFTLTISSLQPEDFATYYCQHAYSFPYTFGQGTKLEIK | 0.188 | 1.1 | 0.188 | 0.032 | 96 | 0.097 | 7.52e-05 | 772000 | 0.146 | 0.097 | 0.162 | 8.41e-05 | 518000 | 0.154 | 7.7e-05 | 500000 | 100 | 0.35 | 84 | 0.005 |  |

From US20070280945A1 (Regeneron, published 2007)
